This is an account of results in publication PMC11685794 (Nature Communications, 2024).

What is called Kd is the equilibrium constant for the complex coming apart. A low value points to higher affinity.

B1: CD163 SRCR 1-5 (residues 42-578) (domain or fragment)
chain: SSLGGTDKELRLVDGENKCSGRVEVKVQEEWGTVCNNGWSMEAVSVICNQLGCPTAIKAPGWANSSAGSGRIWMDHVSCRGNESALWDCKHDGWGKHSNCTHQQDAGVTCSDGSNLEMRLTRGGNMCSGRIEIKFQGRWGTVCDDNFNIDHASVICRQLECGSAVSFSGSSNFGEGSGPIWFDDLICNGNESALWNCKHQGWGKHNCDHAEDAGVICSKGADLSLRLVDGVTECSGRLEVRFQGEWGTICDDGWDSYDAAVACKQLGCPTAVTAIGRVNASKGFGHIWLDSVSCQGHEPAIWQCKHHEWGKHYCNHNEDAGVTCSDGSDLELRLRGGGSRCAGTVEVEIQRLLGKVCDRGWGLKEADVVCRQLGCGSALKTSYQVYSKIQATNTWLFLSSCNGNETSLWDCKNWQWGGLTCDHYEEAKITCSAHREPRLVGGDIPCSGRVEVKHGDTWGSICDSDFSLEAASVLCRELQCGTVVSILGGAHFGEGNGQIWAEEFQCEGHESHLSLCPVAPRPEGTCSHSRDVGVVCS
B2: hemoglobin (Hb) (complex)
chain 1: not shown
chain 2: not shown

Experiment [1] concerns the target haptoglobin-hemoglobin complex, Hp(1-1)Hb (αβHb bound to dimeric Hp1-1) (human, UniProt P00738-2;P00738;P69905;P68871). Put plainly: SPR. Background: Surface plasmon resonance follows binding to a sensor surface in real time, without labels.
Experiment [2] has as its target B1. Briefly: SPR.

The molecule B1 had a Kd in experiment [1] of 0.766 µM.

On to B2, for which the Kd in experiment [2] is 43.8 µM.
